In assay [1] the target is T1, human APRIL protein (human, UniProt O75888 105-250, limits assumed).
T1 construct: Bought protein; also called recombinant APRIL protein
T1 sequence (looked up): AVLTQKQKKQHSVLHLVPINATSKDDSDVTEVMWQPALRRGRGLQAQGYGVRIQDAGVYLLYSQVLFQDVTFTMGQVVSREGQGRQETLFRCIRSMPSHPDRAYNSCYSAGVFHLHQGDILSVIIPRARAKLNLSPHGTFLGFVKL
Kind of assay: ELISA, coated APRIL. How it is done: To test whether the BLyS antibody cross-reacted with human APRIL protein, APRIL protein (purchased from R & D Systems) was first diluted to a final concentration of 1.0 μg/mL with PBS, and then 50 μL of which per well was aliquoted into a 96-well ELISA plate, and the plate was subsequently sealed with plastic film and incubated at 4° C. overnight. On the next day the plate was rinsed four times with the plate washing buffer [PBS buffer containing 0.0500 (v/v) Tween20] and a blocking solution [PBS buffer containing 0.05 (v/v) Tween20 and 1 (w/w) BSA] was added, then the protein was blocked at 37° C. for 2 hours. The blocking solution was removed and 100 μL per well of the lead antibodies prepared in Embodiment 1 and 2 were added in. After incubation for 1 hour at 37° C., the plate was rinsed four times with the plate washing buffer [PBS buffer containing 0.05 (v/v) Tween20]. HRP-labeled (horseradish peroxidase) secondary antibody (purchased from Sigma) was added in and incubated at 37° C. for 1 hour. The plate was then rinsed four times with the plate washing buffer [PBS buffer containing 0.050 (v/v) Tween20]. […] A₄₅₀ₙₘ values were read via an ELISA plate reader (SpectraMax M5e purchased from Molecular Devices) and the results were shown in FIGS. 6A-6B and Table 11. […]

Assay [2] deals with T1, human APRIL protein. Kind of assay: ELISA, coated APRIL; antibody 13.3 nM. A digest of the protocol: (§1)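 Read-out is A450 after TMB development (5 min, RT) and HCl stop, reporting OD values for BLyS antibodies bound to plate-coated human APRIL (1.0 μg/mL). Antibody and HRP-labelled secondary antibody each incubated 1 h at 37 °C; human IgG served as control.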
For assay [3], the target named is T1, human APRIL protein. Kind of assay: ELISA, coated APRIL; antibody 2.67 nM. In short, it runs like this:
as §1

Assay [4] deals with T1, human APRIL protein. Kind of assay: ELISA, coated APRIL; antibody 66.7 nM. A digest of the protocol: as §1
Assay [5] concerns the target T1, human APRIL protein. Kind of assay: ELISA, coated APRIL; antibody 0.107 nM. A digest of the protocol: as §1
Assay [6] addresses T1, human APRIL protein. Kind of assay: ELISA, coated APRIL; antibody 0.534 nM. A digest of the protocol:
as §1

For assay [7], the target named is T1, human APRIL protein. Kind of assay: ELISA, coated APRIL; antibody 0.0213 nM. In short, it runs like this: as §1
The target of assay [8] is T1, human APRIL protein. Kind of assay: ELISA, coated APRIL; antibody 0.00427 nM. A digest of the protocol: as §1
The target in assay [9] is T1, human APRIL protein. Kind of assay: ELISA, coated APRIL; antibody 0 nM (blank). In short, it runs like this:
as §1

Here are results for 1 molecule from patent US20210347873A1 (SHANGHAI PHARMAEXPLORER, published 2021).

B1: 67A2E1D10 (antibody, V domains shown)
VH: EVQLQQSGAELVKPGASVKLSCTASGFNIKNYYMHWVKQRTEEGLEWIGRIDPEDGETKYAPKFQAKATITADTSSNTAYLQLSSLTSEDTAVYFCARKGYYGNYGAWFAYWGQGTLVTVSA
VL: DIQMTQSPASLSVSVGETVTITCRASEDLYSNLAWYQQKQGKSPQLLVYAATFLADGVPSRFSGSGSGTQYSLKINSLQSEDFGNYYCQHFWGTPPTFGGGTKLEIK
notes: Mouse hybridoma antibody purified on Protein G
B1: in the assay with human APRIL protein [1], the binding result is recorded as “no binding (tested: 66.7 nM)”. Further, the OD450 nm with human APRIL protein [2] is 0.0898; with human APRIL protein [3], 0.0673; with human APRIL protein [4] it was 0.264; with human APRIL protein [5], 0.0588; with human APRIL protein [6] it was 0.058; with human APRIL protein [7] it was 0.0563. Further, the OD450 nm with human APRIL protein [8] was 0.0553; with human APRIL protein [9], 0.053.
